Source: patent US6084068, “Elongin A and C functional domains” (Oklahoma Medical Research Foundation, dated 2000)

T1: Elongin BC complex (wild type rat Elongin B and C) (rat, UniProt P62870)
T1 chain 1: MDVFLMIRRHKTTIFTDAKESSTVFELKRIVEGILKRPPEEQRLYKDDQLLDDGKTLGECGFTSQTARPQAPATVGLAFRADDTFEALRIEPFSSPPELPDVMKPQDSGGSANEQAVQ
T1 chain 2: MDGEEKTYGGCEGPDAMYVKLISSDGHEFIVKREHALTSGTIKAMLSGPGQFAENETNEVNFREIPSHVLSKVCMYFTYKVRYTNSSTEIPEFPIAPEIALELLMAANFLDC

B1: Elongin A internal deletion mutant Δ691-730 (other)
chain: MAAESALQVVEKLQARLAANPDPKKLLKYLKKLSVLPITVDILVETGVGKTVNSFRKHEQVGNFARDLVAQWKKLVPVERNNEAEDQDFEKSNSRKRPRDVPQQEEEAEGNYQESWQASGSQPYSPEHRQKKHRKLPELERPHKVAHGHERRDERKRCHKVSPPYSSDPESSDYGHVQSPPPSSPHQMYTDLSRSPEMDQEPIVSHPKPGKVHSNTFQDRLGVSHLGEHQGKGAVSQNKPHKSSHKEKRPVDARGDEKSSVMGREKSHKASSKEESRRLLSEDSAKEKLPSSVVKKEKDREGNSLKKKLSPALDVASDNHFKKPKHKDSEKIKSDKNKQSVDSVDSGRGTGDPLPRAKDKVPNNLKAQEGKVRTNSDRKSPGSLPKVEEMDMDDEFEQPTMSFESYLSYDQPRKKKKKVVKTSGTALGEKGLKKKDSKSTSKNLNSAQKLPKANENKSDKLQPAGAEPTRPRKVPTDVLPALPDIPLPAIQTNYRPLPSLELISSFQPKRKAFSSPQEEEEAGFTGRRMNSKMQVYSGSKCAYLPKMMTLHQQCIRVLKNNIDSIFEVGGVPYSVLEPVLERCTPDQLYRIEECNHVLIEETDQLWKVHCHRDFKEERPEEYESWREMYLRLQDAREQRLRLLTNNIRSAHANKPKGRQAKMAFVNSVAKPPRDVRRRQEKFGTGGAAVPSSAHLAPVASSSVSYDPRKPAVKKIAPMMAKTIKAFKNRFSRR
B2: Elongin A mutant composed of residues 500 to 700 (other)
chain: LELISSFQPKRKAFSSPQEEEEAGFTGRRMNSKMQVYSGSKCAYLPKMMTLHQQCIRVLKNNIDSIFEVGGVPYSVLEPVLERCTPDQLYRIEECNHVLIEETDQLWKVHCHRDFKEERPEEYESWREMYLRLQDAREQRLRLLTNNIRSAHANKPKGRQAKMAFVNSVAKPPRDVRRRQEKFGTGGAAVPEKVRIKPAPY
B3: Elongin A internal deletion mutant Δ545-548 (other)
chain: MAAESALQVVEKLQARLAANPDPKKLLKYLKKLSVLPITVDILVETGVGKTVNSFRKHEQVGNFARDLVAQWKKLVPVERNNEAEDQDFEKSNSRKRPRDVPQQEEEAEGNYQESWQASGSQPYSPEHRQKKHRKLPELERPHKVAHGHERRDERKRCHKVSPPYSSDPESSDYGHVQSPPPSSPHQMYTDLSRSPEMDQEPIVSHPKPGKVHSNTFQDRLGVSHLGEHQGKGAVSQNKPHKSSHKEKRPVDARGDEKSSVMGREKSHKASSKEESRRLLSEDSAKEKLPSSVVKKEKDREGNSLKKKLSPALDVASDNHFKKPKHKDSEKIKSDKNKQSVDSVDSGRGTGDPLPRAKDKVPNNLKAQEGKVRTNSDRKSPGSLPKVEEMDMDDEFEQPTMSFESYLSYDQPRKKKKKVVKTSGTALGEKGLKKKDSKSTSKNLNSAQKLPKANENKSDKLQPAGAEPTRPRKVPTDVLPALPDIPLPAIQTNYRPLPSLELISSFQPKRKAFSSPQEEEEAGFTGRRMNSKMQVYSGSKCAYLTLHQQCIRVLKNNIDSIFEVGGVPYSVLEPVLERCTPDQLYRIEECNHVLIEETDQLWKVHCHRDFKEERPEEYESWREMYLRLQDAREQRLRLLTNNIRSAHANKPKGRQAKMAFVNSVAKPPRDVRRRQEKFGTGGAAVPEKVRIKPAPYTTGSSHVPASNSSSSFHSSPEELAYEGPSTSSAHLAPVASSSVSYDPRKPAVKKIAPMMAKTIKAFKNRFSRR
B4: Elongin A internal deletion mutant Δ651-690 (other)
chain: MAAESALQVVEKLQARLAANPDPKKLLKYLKKLSVLPITVDILVETGVGKTVNSFRKHEQVGNFARDLVAQWKKLVPVERNNEAEDQDFEKSNSRKRPRDVPQQEEEAEGNYQESWQASGSQPYSPEHRQKKHRKLPELERPHKVAHGHERRDERKRCHKVSPPYSSDPESSDYGHVQSPPPSSPHQMYTDLSRSPEMDQEPIVSHPKPGKVHSNTFQDRLGVSHLGEHQGKGAVSQNKPHKSSHKEKRPVDARGDEKSSVMGREKSHKASSKEESRRLLSEDSAKEKLPSSVVKKEKDREGNSLKKKLSPALDVASDNHFKKPKHKDSEKIKSDKNKQSVDSVDSGRGTGDPLPRAKDKVPNNLKAQEGKVRTNSDRKSPGSLPKVEEMDMDDEFEQPTMSFESYLSYDQPRKKKKKVVKTSGTALGEKGLKKKDSKSTSKNLNSAQKLPKANENKSDKLQPAGAEPTRPRKVPTDVLPALPDIPLPAIQTNYRPLPSLELISSFQPKRKAFSSPQEEEEAGFTGRRMNSKMQVYSGSKCAYLPKMMTLHQQCIRVLKNNIDSIFEVGGVPYSVLEPVLERCTPDQLYRIEECNHVLIEETDQLWKVHCHRDFKEERPEEYESWREMYLRLQDAREQRLRLLTNNIRSAEKVRIKPAPYTTGSSHVPASNSSSSFHSSPEELAYEGPSTSSAHLAPVASSSVSYDPRKPAVKKIAPMMAKTIKAFKNRFSRR
B5: wild type Elongin A (other)
chain: MAAESALQVVEKLQARLAANPDPKKLLKYLKKLSVLPITVDILVETGVGKTVNSFRKHEQVGNFARDLVAQWKKLVPVERNNEAEDQDFEKSNSRKRPRDVPQQEEEAEGNYQESWQASGSQPYSPEHRQKKHRKLPELERPHKVAHGHERRDERKRCHKVSPPYSSDPESSDYGHVQSPPPSSPHQMYTDLSRSPEMDQEPIVSHPKPGKVHSNTFQDRLGVSHLGEHQGKGAVSQNKPHKSSHKEKRPVDARGDEKSSVMGREKSHKASSKEESRRLLSEDSAKEKLPSSVVKKEKDREGNSLKKKLSPALDVASDNHFKKPKHKDSEKIKSDKNKQSVDSVDSGRGTGDPLPRAKDKVPNNLKAQEGKVRTNSDRKSPGSLPKVEEMDMDDEFEQPTMSFESYLSYDQPRKKKKKVVKTSGTALGEKGLKKKDSKSTSKNLNSAQKLPKANENKSDKLQPAGAEPTRPRKVPTDVLPALPDIPLPAIQTNYRPLPSLELISSFQPKRKAFSSPQEEEEAGFTGRRMNSKMQVYSGSKCAYLPKMMTLHQQCIRVLKNNIDSIFEVGGVPYSVLEPVLERCTPDQLYRIEECNHVLIEETDQLWKVHCHRDFKEERPEEYESWREMYLRLQDAREQRLRLLTNNIRSAHANKPKGRQAKMAFVNSVAKPPRDVRRRQEKFGTGGAAVPEKVRIKPAPYTTGSSHVPASNSSSSFHSSPEELAYEGPSTSSAHLAPVASSSVSYDPRKPAVKKIAPMMAKTIKAFKNRFSRR
B6: Elongin A internal deletion mutant Δ566-585 (other)
chain: MAAESALQVVEKLQARLAANPDPKKLLKYLKKLSVLPITVDILVETGVGKTVNSFRKHEQVGNFARDLVAQWKKLVPVERNNEAEDQDFEKSNSRKRPRDVPQQEEEAEGNYQESWQASGSQPYSPEHRQKKHRKLPELERPHKVAHGHERRDERKRCHKVSPPYSSDPESSDYGHVQSPPPSSPHQMYTDLSRSPEMDQEPIVSHPKPGKVHSNTFQDRLGVSHLGEHQGKGAVSQNKPHKSSHKEKRPVDARGDEKSSVMGREKSHKASSKEESRRLLSEDSAKEKLPSSVVKKEKDREGNSLKKKLSPALDVASDNHFKKPKHKDSEKIKSDKNKQSVDSVDSGRGTGDPLPRAKDKVPNNLKAQEGKVRTNSDRKSPGSLPKVEEMDMDDEFEQPTMSFESYLSYDQPRKKKKKVVKTSGTALGEKGLKKKDSKSTSKNLNSAQKLPKANENKSDKLQPAGAEPTRPRKVPTDVLPALPDIPLPAIQTNYRPLPSLELISSFQPKRKAFSSPQEEEEAGFTGRRMNSKMQVYSGSKCAYLPKMMTLHQQCIRVLKNNIDSIDQLYRIEECNHVLIEETDQLWKVHCHRDFKEERPEEYESWREMYLRLQDAREQRLRLLTNNIRSAHANKPKGRQAKMAFVNSVAKPPRDVRRRQEKFGTGGAAVPEKVRIKPAPYTTGSSHVPASNSSSSFHSSPEELAYEGPSTSSAHLAPVASSSVSYDPRKPAVKKIAPMMAKTIKAFKNRFSRR
B7: Elongin A mutant composed of residues 500 to 730 (other)
chain: LELISSFQPKRKAFSSPQEEEEAGFTGRRMNSKMQVYSGSKCAYLPKMMTLHQQCIRVLKNNIDSIFEVGGVPYSVLEPVLERCTPDQLYRIEECNHVLIEETDQLWKVHCHRDFKEERPEEYESWREMYLRLQDAREQRLRLLTNNIRSAHANKPKGRQAKMAFVNSVAKPPRDVRRRQEKFGTGGAAVPEKVRIKPAPYTTGSSHVPASNSSSSFHSSPEELAYEGPST
B8: Elongin A internal deletion mutant Δ586-610 (other)
chain: MAAESALQVVEKLQARLAANPDPKKLLKYLKKLSVLPITVDILVETGVGKTVNSFRKHEQVGNFARDLVAQWKKLVPVERNNEAEDQDFEKSNSRKRPRDVPQQEEEAEGNYQESWQASGSQPYSPEHRQKKHRKLPELERPHKVAHGHERRDERKRCHKVSPPYSSDPESSDYGHVQSPPPSSPHQMYTDLSRSPEMDQEPIVSHPKPGKVHSNTFQDRLGVSHLGEHQGKGAVSQNKPHKSSHKEKRPVDARGDEKSSVMGREKSHKASSKEESRRLLSEDSAKEKLPSSVVKKEKDREGNSLKKKLSPALDVASDNHFKKPKHKDSEKIKSDKNKQSVDSVDSGRGTGDPLPRAKDKVPNNLKAQEGKVRTNSDRKSPGSLPKVEEMDMDDEFEQPTMSFESYLSYDQPRKKKKKVVKTSGTALGEKGLKKKDSKSTSKNLNSAQKLPKANENKSDKLQPAGAEPTRPRKVPTDVLPALPDIPLPAIQTNYRPLPSLELISSFQPKRKAFSSPQEEEEAGFTGRRMNSKMQVYSGSKCAYLPKMMTLHQQCIRVLKNNIDSIFEVGGVPYSVLEPVLERCTPHRDFKEERPEEYESWREMYLRLQDAREQRLRLLTNNIRSAHANKPKGRQAKMAFVNSVAKPPRDVRRRQEKFGTGGAAVPEKVRIKPAPYTTGSSHVPASNSSSSFHSSPEELAYEGPSTSSAHLAPVASSSVSYDPRKPAVKKIAPMMAKTIKAFKNRFSRR
B9: Elongin A internal deletion mutant Δ611-650 (other)
chain: MAAESALQVVEKLQARLAANPDPKKLLKYLKKLSVLPITVDILVETGVGKTVNSFRKHEQVGNFARDLVAQWKKLVPVERNNEAEDQDFEKSNSRKRPRDVPQQEEEAEGNYQESWQASGSQPYSPEHRQKKHRKLPELERPHKVAHGHERRDERKRCHKVSPPYSSDPESSDYGHVQSPPPSSPHQMYTDLSRSPEMDQEPIVSHPKPGKVHSNTFQDRLGVSHLGEHQGKGAVSQNKPHKSSHKEKRPVDARGDEKSSVMGREKSHKASSKEESRRLLSEDSAKEKLPSSVVKKEKDREGNSLKKKLSPALDVASDNHFKKPKHKDSEKIKSDKNKQSVDSVDSGRGTGDPLPRAKDKVPNNLKAQEGKVRTNSDRKSPGSLPKVEEMDMDDEFEQPTMSFESYLSYDQPRKKKKKVVKTSGTALGEKGLKKKDSKSTSKNLNSAQKLPKANENKSDKLQPAGAEPTRPRKVPTDVLPALPDIPLPAIQTNYRPLPSLELISSFQPKRKAFSSPQEEEEAGFTGRRMNSKMQVYSGSKCAYLPKMMTLHQQCIRVLKNNIDSIFEVGGVPYSVLEPVLERCTPDQLYRIEECNHVLIEETDQLWKVHCHANKPKGRQAKMAFVNSVAKPPRDVRRRQEKFGTGGAAVPEKVRIKPAPYTTGSSHVPASNSSSSFHSSPEELAYEGPSTSSAHLAPVASSSVSYDPRKPAVKKIAPMMAKTIKAFKNRFSRR

Molecular target: T1, Elongin BC complex (wild type rat …)
Assay: refolded with wild type Elongin B and C; TSK SP-NPR HPLC, SDS-PAGE, silver staining

binding result | Binder
binds | B1
binds | B2
binds | B3
binds | B4
binds | B5
binds | B6
binds | B7
binds | B8
binds | B9
